Data from PMC11259757.
Where two headings read alike, the source gives them in different places. One block for each substance: values may come before it.

Experiments:
[1] = target: 3f8 IgG with Fc variant 3a-5, displayed on CHO cells (human); test: flow cytometry on cells
[2] = target: 3f8 IgG with Fc variant 3a-8, displayed on CHO cells (human); test: flow cytometry on cells
[3] = target: 3f8 IgG with Fc variant 3a-3, displayed on CHO cells (human); test: flow cytometry on cells
[4] = target: 3f8 IgG with Fc variant 3a-4, displayed on CHO cells (human); test: flow cytometry on cells
[5] = target: 3f8 IgG with Fc variant 3a-14, displayed on CHO cells (human); test: flow cytometry on cells
[6] = target: 3f8 IgG with Fc variant 3a-7, displayed on CHO cells (human); test: flow cytometry on cells
[7] = target: 3f8 IgG with Fc variant 3a-1, displayed on CHO cells (human); test: flow cytometry on cells
[8] = target: 3f8 IgG with Fc variant 3a-2, displayed on CHO cells (human); test: flow cytometry on cells
[9] = target: 3f8 IgG with Fc variant 3a-9, displayed on CHO cells (human); test: flow cytometry on cells
[10] = target: 3f8 IgG with Fc variant LPL, displayed on CHO cells (human); test: flow cytometry on cells
[11] = target: 3f8 IgG with Fc variant 3a-10, displayed on CHO cells (human); test: flow cytometry on cells
[12] = target: 3f8 IgG with Fc variant V12, displayed on CHO cells (human); test: flow cytometry on cells
[13] = target: 3f8 IgG with Fc variant 3a-11, displayed on CHO cells (human); test: flow cytometry on cells
[14] = target: FcγRIIa-131H extracellular domain, biotinylated (human) (UniProt P12318); test: BLI
[15] = target: FcγRIIIa-176V extracellular domain, biotinylated (human) (UniProt P08637); test: BLI
[16] = target: FcγRIIa-131R extracellular domain, biotinylated (human); test: BLI
FcγRIIa-131R extracellular domain, biotinylated (human), sequence (P12318 34-217): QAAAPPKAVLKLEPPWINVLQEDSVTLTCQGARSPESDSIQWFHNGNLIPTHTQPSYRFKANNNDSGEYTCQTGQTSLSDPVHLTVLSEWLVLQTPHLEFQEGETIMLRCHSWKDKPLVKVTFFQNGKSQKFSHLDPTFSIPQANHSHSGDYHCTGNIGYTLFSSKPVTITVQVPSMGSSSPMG

[17] = target: FcγRIIb extracellular domain, biotinylated (human) (UniProt P31994); test: BLI
[18] = target: FcγRIIIa-176F extracellular domain, biotinylated (human) (UniProt P08637); test: BLI
[19] = target: FcγRIIa-131H extracellular domain, biotinylated (human) (UniProt P12318); test: BLI; remark: listed apart in the source
[20] = target: FcγRIIIa-176V extracellular domain, biotinylated (human) (UniProt P08637); test: BLI; remark: listed apart in the source
[21] = target: FcγRIIa-131R extracellular domain, biotinylated (human); test: BLI; remark: listed apart in the source
[22] = target: FcγRIIb extracellular domain, biotinylated (human) (UniProt P31994); test: BLI; remark: listed apart in the source
[23] = target: FcγRIIIa-176F extracellular domain, biotinylated (human) (UniProt P08637); test: BLI; remark: listed apart in the source

FcγRIIIa-176F MFI / TNFα MFI [1]: 9.6 MFI ratio
FcγRIIIa-176F^High cells (%) [1]: 0.8%
FcγRIIIa-176F MFI / TNFα MFI [2]: 13.2 MFI ratio
FcγRIIIa-176F^High cells (%) [2]: 2.23%
FcγRIIIa-176F MFI / TNFα MFI [3]: 9.3 MFI ratio
FcγRIIIa-176F^High cells (%) [3]: 0.81%
FcγRIIIa-176F MFI / TNFα MFI [4]: 8.6 MFI ratio
FcγRIIIa-176F^High cells (%) [4]: 0.93%
FcγRIIIa-176F^High cells (%) [5]: 1.15%
FcγRIIIa-176F^High cells (%) [6]: 1.15%
FcγRIIIa-176F MFI / TNFα MFI [7]: 8 MFI ratio
FcγRIIIa-176F^High cells (%) [7]: 0.1%
FcγRIIIa-176F MFI / TNFα MFI [8]: 11.1 MFI ratio
FcγRIIIa-176F^High cells (%) [8]: 0.61%
FcγRIIIa-176F MFI / TNFα MFI [9]: 9.2 MFI ratio
FcγRIIIa-176F MFI / TNFα MFI [10]: 7.5 MFI ratio
FcγRIIIa-176F^High cells (%) [10]: 0.25%
FcγRIIIa-176F MFI / TNFα MFI [11]: 6.9 MFI ratio
Substance: FcγRIIIa-176F extracellular domain, biotinylated (from UniProt P08637 17-208) (receptor)

FcγRIIb^High cells (%) [12]: 7.39%
FcγRIIb MFI / TNFα MFI [13]: 12.9 MFI ratio
Substance: FcγRIIb extracellular domain, biotinylated (from UniProt P31994 43-217) (receptor)

Kd [14]: 240 nM
Kd [15]: 430 nM
Kd [16]: 330 nM
Kd [17]: 570 nM
Kd [18]: 640 nM
Kd [19]: 390 nM
Kd [20]: 390 nM
Kd [21]: 520 nM
Kd [22]: 580 nM
Kd [23]: 770 nM
Substance: trastuzumab IgG with WT Fc (antibody)
